Several values for one entry are separate records, joined by “and”; a condition that tells them apart may be missing. Identical values can stand only once.

Common to all, as to assay: AUC; sedimentation velocity, 0.3 mg/mL, 20 mM Tris/HCl, 500 mM sodium chloride, 5 mM DTT, 0.4% CHAPS, pH 8.0, 42,000 rpm, 20°C; c(S) analysis with Sedfit; monomer, dimer, trimer and higher species
For series [1], the target named is human full-length mutant Htt with 128Qs, C-terminally fused with a FLAG-His (FH) affinity tag (human) (UniProt P42858).
A further series relates to P42858.
Series [2] deals with human full-length normal Htt with 17Qs, C-terminally fused with a FLAG-His affinity tag (human) (UniProt P42858).

For orientation: stoichiometry N means a count of units in the complex or per binding partner. As to “human full-length mutant Htt with 128Qs, C-terminally fused with a FLAG-His (FH) affinity tag, P42858 1-3142”, in series [1], the fraction of dimer came to 20%; the fraction of monomer was determined as 35.6%; the fraction of trimer came to 17.3%; the stoichiometry N is 2 and 3.

For the substance “human full-length mutant Htt with 128Qs, C-terminally fused with a FLAG-His (FH) affinity tag”, the fraction of aggregates entry in the series with P42858 was “also of aggregates (23.6% versus 9.9%)”.

On to “human full-length normal Htt with 17Qs, C-terminally fused with a FLAG-His affinity tag”, for which the fraction of aggregates result in the series on P42858 is listed as “also of aggregates (23.6% versus 9.9%)”.

“human full-length normal Htt with 17Qs, C-terminally fused with a FLAG-His affinity tag, P42858 1-3142”: in series [2], the fraction of dimer worked out at 20%; the fraction of monomer came out at 52.1%; the fraction of trimer was 8.8%; the stoichiometry N is 2 and 3.
